Assay results taken from patent US20150160214A1, “Quantitation of Cellular Adhesion Dynamics Across Immobilized Receptors Under Rheological Shear Flow” (Mayo Foundation for Medical Education and Research, priority 2013, published 2015).

How the values were obtained:
platelet GPIbα [1] = target: T1, platelet GPIbα (Homo sapiens, UniProt P07359); experiment: Platelet adhesion to surface captured disulfide-intact A1 and RCAM A1 under shear flow (Example 2); type: cell-based
T1 construct: endogenous in cells; host or cells: platelets in citrated whole blood of normal healthy volunteer donors
Experimental: The interaction of disulfide-intact A1 and of RCAM A1 with platelets was studied by immobilizing the proteins via the 6×His-Tag on Cellix biochips in which the internal channel surface was coated with a Cu2+ chelating chemistry. A 5 μM concentration of protein was immobilized in the biochip and citrated whole blood was perfused at a shear rate of 800 s−1 (FIG. 11B). This perfusion was followed by TBS buffer and after red blood cells cleared the channel, the shear was decremented to 100 s−1 or incremented to 9000 s−1 every two minutes at logarithmic intervals. Surface bound platelets were allowed to equilibrate at a given shear rate for 50 s and a 60 s video at 24 frames per second was recorded and analyzed as described in the methods. The internal channel surface lacking immobilized A1 domain was completely inert to platelets.
At each shear rate, platelet mean pause times and mean translocation velocities were calculated from the X-Y trajectories of moving platelets as described in the methods. Approximately 1000 platelet trajectories were analyzed at each shear rate (FIGS. 11B to 11D). The mean pause times were also calculated from the pause time survival fraction obtained from the cumulative integral of the pause time distribution (FIG. 11B) (Thomas:2006). The survival fraction exponentially decreases with faster decay rates as shear increases. Fitting the survival fraction with a bi-exponential decay function results in the apparent rate constants and amplitudes as a function of shear rate (FIG. 11C).
The determination and analysis of platelet pause times and instantaneous translocation velocities over surface captured A1 and RCAM A1 was performed as previously described (Tischer:2013). Here, the inventor used the Cellix Mims Evo syringe pump controlled by VenaFluxAssay (www.cellixltd.com). Vena8™ CGS biochips were custom designed with 800 μm width by 80 μm height microchannels bonded to glass slides with a Cu^2+ chelated PEG surface serviced by Microsurfaces Inc. (www.proteinslides.com/histag.html) to which the A1 and RCAM A1 in TBS were captured by the 6×His-Tag at a total concentration of 5 μM. Citrated whole blood was obtained from the informed consent of healthy volunteer donors with approval from the Mayo Clinic Institutional Review Board and 100 μL was perfused over the surface captured A1 domains at […]. The shear was increased or decreased in a stepwise manner to measure the dynamics of platelet adhesion at high and low shear. After allowing the flow chamber to equilibrate for 50 s at each shear rate, 1 min movies were recorded at 24 frames per second in phase contrast at 200× magnification with 2×2 pixel binning on a Zeiss AxioCam Mrm camera (6.45 μm/px) attached to a Zeiss Axio Observer.D1 inverted microscope. Tracking analysis was performed using MediaCybernetics ImagePro® Premier (www.mediacy.com/index.aspx?page=IP\_Premier) The distance travelled in the direction of flow was calculated from the coordinate data for each platelet as a function of time using √{square root over ((xt−x0)^2)}, where x0 is the coordinates of a platelet on the first frame of the movie and xt is the coordinate on subsequent frames of the movie. These trajectories were differentiated into instantaneous velocities using a Savitzky-Golay algorithm (Savitzky:1964) with a five data point window size and a second order polynomial implemented into a Mathematica (www.wolfram.com/mathematica) notebook written in our lab. Trajectories were retained for statistical analysis if the platelet was present for ≧1 s and travelled a total distance greater than 1 Distance travelled in pixels (px) was converted to (μm) using 6.45 μm/px*2/200=0.0645 μm/px. Pause times were determined by the amount of time (sec) a platelets velocity was 0±4 px/s≅0±0.23 μm/s, within the noise. Data are reported as mean velocities and pause times attained by individual platelets averaged over all platelets analyzed. […]

platelet GPIbα [2] = target: T1, platelet GPIbα; experiment: Platelet pause times on surface-captured A1 domain variants, parallel plate flow chamber (Table 4, Example 3); type: cell-based; details: shear rate 1500 s^−1; mean ± std. dev., number of measurements in parentheses; NB = No Binding
Experimental: The determination and analysis of platelet pause times and instantaneous translocation velocities over surface captured A1 and RCAM A1 was performed as previously described (Tischer:2013). Here, the inventor used the Cellix Mims Evo syringe pump controlled by VenaFluxAssay (www.cellixltd.com). Vena8™ CGS biochips were custom designed with 800 μm width by 80 μm height microchannels bonded to glass slides with a Cu^2+ chelated PEG surface serviced by Microsurfaces Inc. (www.proteinslides.com/histag.html) to which the A1 and RCAM A1 in TBS were captured by the 6×His-Tag at a total concentration of 5 μM. Citrated whole blood was obtained from the informed consent of healthy volunteer donors with approval from the Mayo Clinic Institutional Review Board and 100 μL was perfused over the surface captured A1 domains at 700 s^−1. The shear was increased or decreased in a stepwise manner to measure the dynamics of platelet adhesion at high and low shear. After allowing the flow chamber to equilibrate for 50 s at each shear rate, 1 min movies were recorded at 24 frames per second in phase contrast at 200× magnification with 2×2 pixel binning on a Zeiss AxioCam Mrm camera (6.45 μm/px) attached to a Zeiss Axio Observer.D1 inverted microscope. Tracking analysis was performed using MediaCybernetics ImagePro® Premier (www.mediacy.com/index.aspx?page=IP\_Premier) The distance travelled in the direction of flow was calculated from the coordinate data for each platelet as a function of time using √{square root over ((xt−x0)^2)}, where x0 is the coordinates of a platelet on the first frame of the movie and xt is the coordinate on subsequent frames of the movie. These trajectories were differentiated into instantaneous velocities using a Savitzky-Golay algorithm (Savitzky:1964) with a five data point window size and a second order polynomial implemented into a Mathematica (www.wolfram.com/mathematica) notebook written in our lab. Trajectories were retained for statistical analysis if the platelet was present for ≧1 s and travelled a total distance greater than 1 Distance travelled in pixels (px) was converted to (μm) using 6.45 μm/px*2/200=0.0645 μm/px. Pause times were determined by the amount of time (sec) a platelets velocity was 0±4 px/s≅0±0.23 μm/s, within the noise. Data are reported as mean velocities and pause times attained by individual platelets averaged over all platelets analyzed. Integral analysis of the cumulative pause time histogram gives the survival fraction, equation (24).
The rheological interaction of platelets with A1 domain variants harboring type 2M and type 2B mutations was studied using recently developed flow-chamber methods (19). The A1 domains ([…]) were immobilized on Vena8™ biochips (Cellix, Dublin, Ireland) coated with a Cu^2+-chelated poly-ethylene-glycol surface serviced by MicroSurfaces, Inc. (Englewood, N.J.) via the 6×His-Tag, enabling the preservation of the structural properties of the domain in solution and its concomitant effects on platelet adhesion under rheological shear flow. One-hundred microliters of citrated whole blood, obtained from the informed consent of normal healthy volunteer donors with approval from the Mayo Clinic Institutional Review Board (Rochester, Minn.), was perfused at a shear rate of 800 s^−1 followed by Tris-buffered saline. Platelets translocating on the surface-captured domains were filmed at 24 frames/s for 1 min at logarithmic intervals of the shear rate. Coordinates obtained from tracking analysis of the resulting movies were processed using the inventor recently developed statistical analytics for the quantification of cellular adhesion dynamics across immobilized receptors under rheological shear flow (supra). Biochips lacking the surface-captured A1 domain were completely inert to platelets.

In the case of “A1-1238: Recombinant human vWF A1 domain, amino acids Q1238-P1471, with N-terminal 6×His-Tag, disulfide intact”, the “Shear rate at which platelets detach from the surface immobilized domain” value (platelet GPIbα [1]; listed as A1) is reported as “less than 300 s−1”, the “Shear rate at which platelets detach from the surface immobilized domain” value (platelet GPIbα [1]; listed as disulfide-intact A1) is reported as ≤ 300 s⁻¹ and the “Mean platelet pause time” value (platelet GPIbα [1]; shear rate 530 s−1) is reported as ~0.75 s. For the same substance, the “Mean platelet pause time” value (platelet GPIbα [1]; shear rate 1025 s−1) was ~0.9 s and the “Pause Time 1500 s^−1 (s)” value (platelet GPIbα [2]) was 0.67 ± 0.07 (6) s.
